No end group written: not given here. FI = 5(6)-carboxyfluorescein
Legend:
Experiment in all cases: cell-based or functional assay
[1] = biological target: M1^C-Trx-H6 (AceL-TerL Int^C mutant M1: N46D, L55Q) [thioredoxin: P0AA25]
[2] = biological target: M2^C-Trx-H6 (AceL-TerL Int^C mutant M2: S38G, N46I, N54D, L55Q) [thioredoxin: P0AA25]
[3] = biological target: MBP-Int^C-TycB1 with the AceL-TerL MX1 mutant (M1^C)
Sequence of MBP-Int^C-TycB1 with the AceL-TerL MX1 mutant (M1^C) (main, as listed by the source, change not shown): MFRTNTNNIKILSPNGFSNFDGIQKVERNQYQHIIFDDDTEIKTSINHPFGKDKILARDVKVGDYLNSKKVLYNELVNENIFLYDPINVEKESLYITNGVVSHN

Sequence of M2^C-Trx-H6 (AceL-TerL Int^C mutant M2: S38G, N46I, N54D, L55Q) [thioredoxin: P0AA25] (P0AA25 other isoform, or with tags, fused parts or gaps S38G N46I N54D L55Q S38G N46I N54D L55Q): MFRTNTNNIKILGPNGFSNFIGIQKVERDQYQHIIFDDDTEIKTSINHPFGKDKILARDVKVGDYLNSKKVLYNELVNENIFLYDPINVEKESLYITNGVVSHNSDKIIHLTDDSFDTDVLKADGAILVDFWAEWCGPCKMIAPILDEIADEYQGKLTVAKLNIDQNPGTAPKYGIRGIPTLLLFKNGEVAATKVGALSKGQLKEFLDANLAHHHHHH
Sequence of M1^C-Trx-H6 (AceL-TerL Int^C mutant M1: N46D, L55Q) [thioredoxin: P0AA25] (P0AA25 other isoform, or with tags, fused parts or gaps N46D L55Q N46D L55Q): as the sequence (P0AA25 other isoform, or with tags, fused parts or gaps S38G N46I N54D L55Q S38G N46I N54D L55Q) above, with G13S, I21D, D29N counted along it

splicing rate at 37° C. against the wild-type [1] [fold faster]	splicing rate at 37° C. against the wild-type [2] [fold faster]	splicing rate at 8° C. against the M86 DnaB mutant intein [3] [fold higher]	splicing rate at 8° C. against the unevolved wild-type AceL-TerL intein [3] [fold higher]	splicing yield at 8° C. [3] [%]	Binder
29	56				{FI}-KKEFECVSGDTMVETEDGKIKIEDLYKRLA [pepM3^N (FI-KKEFE-IntN with the M3 Int^N, Y3S)]
		13	15	80 to 95	{FI}-KKEFECVYGDTMVETEDGKIKIEDLYKRLA [pepWT^N (FI-KKEFE-IntN), synthetic peptide with the Int^N of the AceL-TerL intein]
